Experimental data from US20260028403A1 (Zymeworks, published 2026).
Residue numbers refer to the chain shown, from its start. Names and notes keep the numbering of the source.

B1: v37693 (trispecific antibody, human IgG1, kappa, L234A L235A)
heavy 1: not shown
heavy 2: QVQLVESGGGLVQPGGSLRLSCSVSGIDLSSNPMIWVRQAPGKGLQYIGIIDTDGSTYYADWAKGRFTISKDSTTVYLQINSPRAEDTAVYYCARRLHGSSNGYYDDLWGQGTLVTVSSGGGGSGGGGSGGGGSGGGGSDGQMTQSPSSVSASVGDRVTITCQASQSIYSYLSWYQQKPGQRPKLLIYKASTLASGVPSRFSGSGSGTDFTLTISSVQPEDFATYYCQQGYTVTNVDKNTFGGGTKVEIKAAEPKSSDKTHTCPPCPAPEAAGGPSVFLFPPKPKDTLMISRTPEVTCVVVSVSHEDPEVKFNWYVDGVEVHNAKTKPREEQYNSTYRVVSVLTVLHQDWLNGKEYKCKVSNKALPAPIEKTISKAKGQPREPQVYVLPPSRDELTKNQVSLLCLVKGFYPSDIAVEWESNGQPENNYLTWPPVLDSDGSFFLYSKLTVDKSRWQQGNVFSCSVMHEALHNHYTQKSLSLSPG
light: DIQMTQSPSSLSASVGDRVTITCRASESVEYYVTSLMQWYQQKPGKAPKLLIYAASNVDSGVPSRFSGSGSGTDFTLTISSLQPEDIATYYCQQSRKVPFTFGGGTKVEIKRTVAAPSVFIFPPSDEQLKSGTASVVCLLNNFYPREAKVQWKVDNALQSGNSQESVTEQDSKDSTYSLSSTLTLSKADYEKHKVYACEVTHQGLSSPVTKSFNRGEC
notes: also called v37638 format, CD28 VH Y1037A
B2: v34927 (bispecific antibody, human IgG1, kappa, L234A L235A)
heavy 1: not shown
heavy 2: EIVLTQSPATLSLSPGERVTMSCSASSSVSYMHWYQQKPGQAPRLWIYDTSKLASGVPARFSGSGSGTDYTLTISSVEPEDNAVYYCQQWSGHPLTFGQGTKVEIKGGGGSGGGGSGGGGSGGGGSQVQLVQSGAEVKKPGASVKISCKASGYSFTGYTMNWVRQAPGQGLEWIGLITPYSGASSYAQKFQGRATLTVDKSTSTAYMELSSLRSEDTAVYYCARGGYDGRGFDYWGQGTNVTVSSAAEPKSSDKTHTCPPCPAPEAAGGPSVFLFPPKPKDTLMISRTPEVTCVVVSVSHEDPEVKFNWYVDGVEVHNAKTKPREEQYNSTYRVVSVLTVLHQDWLNGKEYKCKVSNKALPAPIEKTISKAKGQPREPQVYVLPPSRDELTKNQVSLLCLVKGFYPSDIAVEWESNGQPENNYLTWPPVLDSDGSFFLYSKLTVDKSRWQQGNVFSCSVMHEALHNHYTQKSLSLSPG
light: B1 light
notes: MSLN VL-VH scFv); also called anti-(MSLNxCD28) bispecific control
B3: v37695 (trispecific antibody, human IgG1, kappa, L234A L235A)
heavy 1: not shown
heavy 2: B1 heavy 2
light: B1 light with N57A
notes: also called v37638 format, CD28 VL N1066A
B4: v34919 (bispecific antibody, human IgG1, lambda, L234A L235A)
heavy 1: not shown
heavy 2: B2 heavy 2
light: NFMLTQPHSVSESPGKTVTISCKRNTGNIGSNYVNWYQQHEGSSPTTIIYRNDKRPDGVSDRFSGSIDRSSKSASLTISNLKTEDEADYFCQSYSSGFIFGGGTKLTVLGQPKAAPSVTLFPPSSEELQANKATLVCLISDFYPGAVTVAWKADSSPVKAGVETTTPSKQSNNKYAASSYLSLTPEQWKSHRSYSCQVTHEGSTVEKTVAPTECS
notes: MSLN VL-VH scFv); also called anti-(MSLNxCD3) bispecific control

How the values were obtained:
[1] = molecular target: T1, CD28 on primary human T cells (human, UniProt P10747 19-220); assay: cell-based or functional assay
[2] = molecular target: T2, Recombinant human/cynomolgus/rhesus macaque CD28 mouse IgG2a Fc fusion protein (Acro Biosystems) (human/cynomolgus/rhesus macaque, UniProt P10747 19-152); assay: SPR, in-format anti-CD28 variants, huCD28
T2 construct: bought; also called huCD28

[3] = molecular target: T1, CD28 on primary human T cells; assay: cell-based or functional assay; remark: listed apart in the source
[4] = molecular target: T3, Recombinant MSLN his tag protein (R&D systems) (UniProt Q13421 296-580, limits assumed); assay: SPR Biacore T200, MSLN-his on CM5, construct flowed, 1:1 model
T3 construct: his tag; also called mesothelin

[5] = molecular target: T2, Recombinant human/cynomolgus/rhesus …; assay: SPR Biacore T200, CD28-mIgG2a Fc on CM5, construct injected, 1:1 model;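 note: fc fusion captured by amine coupling, run at 25 °C in HEPES buffer pH 7.4, association 140-500 s then dissociation 600-1200 s, values averaged over three independent runs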
[6] = molecular target: T4, Recombinant human CD3 epsilon/delta heterodimer, his tag protein (Acro Biosystems) (human, UniProt P07766 23-126; P04234 22-105); assay: SPR Biacore T200, CD3 e/d-his on CM5, construct injected, 1:1 model;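 note: measured at 25 °C in HEPES-buffered saline with EDTA and Tween 20 at pH 7.4, values are means of three independent runs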
T4 construct: bought

Row | Binder | IL-2 maximum cytokine, T cells alone [1] [pg/mL] | IL-2 maximum cytokine, T cells with SNU 601 cells [1] [pg/mL] | TNFa maximum cytokine, T cells alone [1] [pg/mL] | TNFa maximum cytokine, T cells with SNU 601 cells [1] [pg/mL] | Fold-change from WT [2] [fold] | Kd [2] [nM] | koff [2] [s⁻¹] | kon [2] [M⁻¹ s⁻¹] | IC50, T cell-dependent cytotoxicity on SNU 601 [3] [pM] | Maximum Killing (%), SNU 601 [3] [%] | Kd [4] [nM] | koff [4] [s⁻¹] | kon [4] [M⁻¹ s⁻¹] | Kd [5] [nM] | koff [5] [s⁻¹] | kon [5] [M⁻¹ s⁻¹] | Kd [6] [nM] | koff [6] [s⁻¹] | kon [6] [M⁻¹ s⁻¹]
1 | B1 | 104 | 3600 | 19.7 | 453 | 4.1 | 91.8 | 0.00968 | 106000 | 0.13 | 95.3 |  |  |  |  |  |  |  |  | 
2 | B2 |  |  |  |  |  |  |  |  |  |  | 6.86 | 0.00187 | 270000 | 50.7 | 0.00258 | 50900 |  |  | 
3 | B3 | 28.9 | 3470 | 13 | 404 | 1.3 | 27.7 | 0.00266 | 95100 | 0.04 | 89.1 |  |  |  |  |  |  |  |  | 
4 | B4 |  |  |  |  |  |  |  |  |  |  | 4.16 | 0.00181 | 458000 |  |  |  | 50.4 | 0.0131 | 267000
